Results taken from publication PMC12282130.

Target: PlMYB73-nLUC (Paeonia lactiflora)

Dual-LUC reporter in N. benthamiana leaves: activation of PlTPS1pro (LUC/REN) by PlMYB73 together with PlMYB70, against PlMYB70 alone: 3.45 fold
Substance: cLUC-PlMYB70 (natural protein)
